{
  "source": "patent US20260092084A1",
  "about": "“PEPTIDE AND ASSEMBLY OR COMPOSITION CONTAINING SAID PEPTIDE” (priority 2022, published 2026)",
  "key": {"[1]": {"assay": "Average particle diameter of peptide assembly by dynamic light scattering", "type": "physicochemical", "conditions": "10 mM HEPES, 150 mM NaCl buffer (pH 7); 40 mM DMSO stock diluted 100-fold; stood overnight; 25° C.; main peak of scattering intensity", "protocol": "5 mg of each of the peptides of Examples 1-1 to 1-5 and Reference Examples 1-1 to 1-8 was dissolved in dimethyl sulfoxide (DMSO) to provide a stock solution (40 mM). To a 10 mM HEPES and 150 mM NaCl buffer (pH 7) under stirring with a micromixer (E-36, Taitec Corporation), 4 μL of the stock solution was dropped to be diluted 100-fold. The dilution was vortexed and then left to stand still at room temperature overnight. Then, 200 μL of the dilution was used as a measurement sample and measurement of particle diameter distribution was performed at 25° C. by dynamic light scattering with Litesizer 500 (Anton Paar GmBH). The results determined by defining the main peak of a scattering intensity as the average particle diameter of an assembly are shown in Table 3. Provided that, when a polydispersity index was more than 20%, the main peak was determined with further reference to a volume-based particle diameter distribution."}, "[2]": {"assay": "Pyrene fluorescence probing, critical aggregation concentration", "type": "physicochemical", "conditions": "pyrene probe 0.1 μM in PBS, 24 hours, room temperature; inflection point of FIG. 5", "protocol": "Fluorescence probing has hitherto been widely used as a technique for measuring the critical micellar concentration (CMC) of a surfactant solution. When hydrophobic fluorescent molecules are added to an aqueous solution of a surfactant and excited, week fluorescence is generated from the fluorescent molecules dispersed in the solution under a state in which the concentration of the surfactant is low. Meanwhile, the concentration of the surfactant is more than the CMC, the hydrophobic fluorescent molecule is incorporated into a micelle surrounded by hydrophobic groups of the surfactant (hydrophobic environment) and emits strong fluorescence. In this experimental example, a change in fluorescent property with a change in peptide concentration was investigated by using pyrene as a fluorescence probe and using a peptide instead of the surfactant. […]\n(3) One hundred fifty microliter of the reaction solution was transferred to each well of a plate (Non-Treated Black Polystyrene 96-well plate (Corning 3694)). […] The peak value of a fluorescence intensity (384 nm) was plotted against a peptide concentration (logarithmic value).\nThis increased fluorescence intensity means formation of a peptide assembly that provides a hydrophobic environment capable of encapsulating pyrene. […] The peptides of Examples 1-2 and 1-5 each had approximately the same fluorescence intensity up to 0.1 mM."}},
  "note": "Square brackets hold non-standard residues; d marks the D form. Ends that are not written are not given here. * marks the point of attachment. pS = N[C@@H](COP(=O)(O)O)C(=O)O; Tfa = O=C(C(F)(F)F)*",
  "data": [
    {"substance": "DSpSEEKW-LLELLELL-RRK(Tfa)RR (DS[pS]EEKWLLELLELLRRK(Tfa)RR-NH2; N-terminus assumed; SMILES CC(C)C[C@H](NC(=O)[C@H](CC(C)C)NC(=O)[C@H](CCC(=O)O)NC(=O)[C@H](CC(C)C)NC(=O)[C@H](CC(C)C)NC(=O)[C@H](CCC(=O)O)NC(=O)[C@H](CC(C)C)NC(=O)[C@H](CC(C)C)NC(=O)[C@H](Cc1c[nH]c2ccccc12)NC(=O)[C@H](CCCCN)NC(=O)[C@H](CCC(=O)O)NC(=O)[C@H](CCC(=O)O)NC(=O)[C@H](COP(=O)(O)O)NC(=O)[C@H](CO)NC(=O)[C@@H](N)CC(=O)O)C(=O)N[C@@H](CCCNC(=N)N)C(=O)N[C@@H](CCCNC(=N)N)C(=O)N[C@@H](CCCCNC(=O)C(F)(F)F)C(=O)N[C@@H](CCCNC(=N)N)C(=O)N[C@@H](CCCNC(=N)N)C(N)=O) [Example 1-1]", "values": [
      {"measurement": "Average particle diameter", "setting": "[1]", "value": 380, "unit": "nm"},
      {"measurement": "critical aggregation concentration (CAC)", "setting": "[2]", "value": 50, "unit": "µM"}
    ]}
  ]
}
